Measured values published in patent US20220324993A1 (EXCELMAB, published 2022).
Substitutions are numbered along the chain they refer to. Names and notes keep the numbering of the source.

T1: CD20 on Raji cells (CD20+/CD3-) (human, UniProt P11836 1-297)
T1 sequence (looked up): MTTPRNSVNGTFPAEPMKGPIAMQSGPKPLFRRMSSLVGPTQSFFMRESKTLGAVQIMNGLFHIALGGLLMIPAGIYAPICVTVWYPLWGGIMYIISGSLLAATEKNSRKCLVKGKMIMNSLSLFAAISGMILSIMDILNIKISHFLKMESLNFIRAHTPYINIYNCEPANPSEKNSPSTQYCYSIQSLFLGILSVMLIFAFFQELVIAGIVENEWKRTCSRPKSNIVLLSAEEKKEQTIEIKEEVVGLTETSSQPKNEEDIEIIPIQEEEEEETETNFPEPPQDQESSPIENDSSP

B1: CD20×CD3 BsAb V1 (bispecific antibody, human IgG1, kappa, L234A L235A)
heavy 1: EVQLVESGGGLVQPGRSLRLSCAASGFTFNDYAMHWVRQAPGKGLEWVSTISWNSGSIGYADSVKGRFTISRDNAKKSLYLQMNSLRAEDTALYYCAKDIQYGNYYYGMDVWGQGTTVTVSSASTKGPSVFPCAPSSKSTSGGTAALGCLVKDYFPEPVTVSWNSGALTSGVHTFPAVLQSSGLYSLSSVVTVPSSSLGTQTYICNVNHKPSNTKVDKKVEPKSSDKTHTCPPCPAPEAAGGPSVFLFPPKPKDTLMISRTPEVTCVVVDVSHEDPEVKFNWYVDGVEVHNAKTKPREEQYNSTYRVVSVLTVLHQDWLNGKEYKCKVSNKALPAPIEKTISKAKGQPREPQVYTLPPSREEMTKNQVSLTCLVKGFYPSDIAVEWESNGQPENNYKTDDDVLDSDGSFFLYSKLTVDKSRWQQGNVFSCSVMHEALHNHYTQKSLSLSPGK
light 1: not shown
heavy 2: EVQLVESGGGLVQPGGSLKLSCAASGFTFNTYAMNWVRQAPGKGLEWVARIRSKYNNYATYYADSVKDRFTISRDDSKNTAYLQMNNLKTEDTAMYYCVRHGNFGNSYVSWFAYWGQGTLVTVSSASTKGPSVFPLAPSSKSTSGGTAALGCLVKDYFPEPVTVSWNSGALTSGVHTFPAVLQSSGLYSLSSVVTVPSSSLGTQTYICNVNHKPSNTKVDKKVEPKSCDKTHTCPPCPAPEAAGGPSVFLFPPKPKDTLMISRTPEVTCVVVDVSHEDPEVKFNWYVDGVEVHNAKTKPREEQYNSTYRVVSVLTVLHQDWLNGKEYKCKVSNKALPAPIEKTISKAKGQPREPQVYTLPPSRDELTKNQVSLTCLVKGFYPSDIAVEWESNGQPENNYKTTKKKLDSDGSFFLYSKLTVDKSRWQQGNVFSCSVMHEALHNHYTQKSLSLSPGK
light 2: DIQMTQEPSLTTSPGGTVTLTCRSSTGAVTTSNYANWVQEKPGQAPRGLIGGTNKRAPGTPARFSGSLIGGKAALTITGVQPEDEAIYFCALWYSNLWVFGGGTKLEIKRTVAAPSVFIFPPSDEQLKSGTASVVCLLNNFYPREAKVQWKVDNALQSGNSQESVTEQDSKDSTYSLSSTLTLSKADYEKHKVYACEVTHQGLSSPVTKSFNRGEC
notes: Four-chain IgG-like bispecific antibody with a heterodimeric Fc; The anti-CD20 arm is derived from Ofatumumab; the anti-CD3 arm is a humanized murine antibody without the N106T mutation; Expressed in HEK293 cells behind an IL-2 signal peptide supplied by the plasmid; also called CD20×CD3 bispecific antibody V1
B2: CD20×CD3 BsAb V2 (bispecific antibody, human IgG1, kappa, L234A L235A)
heavy 1: B1 heavy 1
light 1: not shown
heavy 2: B1 heavy 2 with N106T
light 2: B1 light 2
notes: also called CD20×CD3 bispecific antibody V2

What was measured:
[1] = biological target: T2, CD3 antigen: 1:1 mixture of human CD3 e protein and human CD3 d protein (Sino Biological Inc.) (human, UniProt P07766 23-126; P04234 22-105); assay: ELISA, CD3 e/d mixture coated, anti-human IgG-HRP detection
T2 construct: Bought recombinant proteins, mixed 1:1 and coated on the ELISA plate; also called antigen CD3
T2 sequence (P07766 23-126 limits assumed, chain 1 of 2): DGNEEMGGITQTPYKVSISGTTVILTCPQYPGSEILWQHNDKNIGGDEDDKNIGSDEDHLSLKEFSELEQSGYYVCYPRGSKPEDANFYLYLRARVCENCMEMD
T2 sequence (P04234 22-105 limits assumed, chain 2 of 2): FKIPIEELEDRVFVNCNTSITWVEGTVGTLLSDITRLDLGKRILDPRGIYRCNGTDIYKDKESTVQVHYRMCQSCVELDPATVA
Description: 4) Addition of Samples: the bispecific antibody sample was diluted with PBS to 10 μg/ml and then subjected to a 4-fold gradient dilution at a total of eight concentrations. The diluted samples were added at 100 μL/well, and two replicate wells were used for each antibody concentration. The reaction wells were sealed with a plate sealing film and incubated at room temperature for 1.5 hours. The plate was washed 5 times with 0.05% PBST.
5) Addition of Secondary Antibody: HRP-labeled Goat Anti-Human IgG (H+L) (purchased from Proteintech company, product catalog No. SA00001-17) was diluted with PBS at a ratio of 1:2000 and added in a volume of 100 μL to each well. The reaction wells were sealed with a plate sealing film and incubated at room temperature for 1 hour. The plate was washed 5 times with 0.05% PBST.
7) Stopping: 50 μL of a stop solution (1 M HCl) was added to each well to stop the chromogenic reaction. After 3 min, the OD value of the reaction solution in each well was read at 450 nm on a microplate reader.

[2] = biological target: T1, CD20 on Raji cells (CD20+/CD3-); assay: cell-based or functional assay

Binder	EC50 [1] [ng/mL]	ADCC activity to kill target tumor cells (Raji and Daudi cells), EC50 [2] [ng/mL]	killing of Raji cells by hPBMCs (LDH release), EC50 [2] [ng/mL]
B1	818	0.2	0.21
B2	2100	0.2	0.24
